The values below come from PMC8547449 (2021).

This test addresses T1, C4b-binding protein (human, UniProt P04003 49-597; P20851 18-252).
T1 chain 1: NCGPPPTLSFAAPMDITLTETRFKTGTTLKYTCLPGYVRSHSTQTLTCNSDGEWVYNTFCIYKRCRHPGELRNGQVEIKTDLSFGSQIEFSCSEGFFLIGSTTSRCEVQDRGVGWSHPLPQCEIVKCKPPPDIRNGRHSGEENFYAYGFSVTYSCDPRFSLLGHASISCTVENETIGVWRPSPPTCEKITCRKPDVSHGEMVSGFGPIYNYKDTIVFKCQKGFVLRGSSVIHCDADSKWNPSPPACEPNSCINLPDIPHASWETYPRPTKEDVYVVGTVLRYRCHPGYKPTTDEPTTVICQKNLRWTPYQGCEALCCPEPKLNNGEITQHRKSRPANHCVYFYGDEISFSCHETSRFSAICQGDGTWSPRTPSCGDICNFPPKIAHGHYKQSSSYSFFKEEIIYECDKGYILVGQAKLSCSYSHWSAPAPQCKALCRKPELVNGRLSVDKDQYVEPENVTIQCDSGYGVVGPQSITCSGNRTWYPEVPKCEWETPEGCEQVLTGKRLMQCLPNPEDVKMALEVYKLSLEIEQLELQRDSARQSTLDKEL
T1 chain 2: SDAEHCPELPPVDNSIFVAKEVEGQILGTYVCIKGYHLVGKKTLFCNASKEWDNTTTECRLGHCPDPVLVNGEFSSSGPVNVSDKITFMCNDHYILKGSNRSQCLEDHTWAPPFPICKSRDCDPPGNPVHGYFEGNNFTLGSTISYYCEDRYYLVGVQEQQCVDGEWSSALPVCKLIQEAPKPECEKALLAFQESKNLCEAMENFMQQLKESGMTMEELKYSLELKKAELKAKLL
Description: SPR. In general terms: Surface plasmon resonance follows binding to a sensor surface in real time, without labels.

B1: M28 protein, recombinant, affinity tag removed by TEV protease (natural protein)
chain: AESPKSTETSANGADKLADAYNTLLTEHEKLRDEYYTLIDAKEEEPRYKALRGENQDLREKEGKYQDKIKKLEEKEKNLEKKSEDVERHYLKKLDQEHKEQEERQKNLEELERQSQREIDKRYQEQLQKQQQLETEKQISEASRKSLSRDLEASRAAKKDLEAEHQKLKEEKQISDASRQGLSRDLEASRAAKKDLEAEHQKLKEEKQISDASRQGLSRDLEASREAKKKVEADLAEANSKLQALEKLNKELEEGKKLSEKEKAELQARLEAEAKALKEQLAKQAEELAKLKGNQTPNAKVAPQANRSRSAMTQQKR
Usually Kd stands for a measure of binding affinity in units of concentration. Molecule B1 registered a Kd of 0.188 nM.
